From patent US20210139548A1 (published 2021)
*1 amine or outer side, *2 acyl side, *3 side chain or, on linkers, in order; H or OH if unused. Side-chain parts run from the residue outwards. The star is where a group is joined. C18 diacid = O=C(O)CCCCCCCCCCCCCCCCC(=O)*; γGlu = O=C(O)[C@H](CCC(=O)[*:2])N[*:1]; Isovaleryl = CC(C)CC(=O)*; AEEA = NCCOCCOCC(=O)O

T1: human neuropeptide Y2 receptor (human, UniProt P49146 1-381)
T1 construct: whole, on cells; also called hNPY2 receptor; hNPY2-R
T1 sequence (looked up): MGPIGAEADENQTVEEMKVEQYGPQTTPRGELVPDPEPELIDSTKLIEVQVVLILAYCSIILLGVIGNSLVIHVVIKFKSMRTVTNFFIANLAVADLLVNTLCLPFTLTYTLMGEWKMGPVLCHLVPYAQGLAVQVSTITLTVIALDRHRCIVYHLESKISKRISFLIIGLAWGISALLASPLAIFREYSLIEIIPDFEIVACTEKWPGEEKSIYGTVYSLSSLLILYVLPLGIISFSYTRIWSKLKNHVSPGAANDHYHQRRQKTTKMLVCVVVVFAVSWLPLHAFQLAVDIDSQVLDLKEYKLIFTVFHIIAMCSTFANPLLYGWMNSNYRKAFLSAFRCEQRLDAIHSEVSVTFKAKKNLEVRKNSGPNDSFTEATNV


Molecular target: T1, human neuropeptide Y2 receptor
Assay: radioligand competition (125I-PYY(1-36)), hNPY2R membranes
Procedure, shortened: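 Commercial human Y2 receptor membranes (0.5 μg protein/well) were incubated with peptide for 2 h at room temperature in 50 mM HEPES, 5 mM MgCl₂, 1 mM CaCl₂, pH 7.4, with 0.2% ovalbumin. Bound radioligand was separated on PEI-soaked GF/C filters and counted by scintillation, and IC₅₀ came from nonlinear sigmoidal regression.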

Row | Binder | Ki [nM]
1 | Isovaleryl-APEK([AEEA-AEEA-γGlu-C18 diacid])PEEDTSAEELQRYYVSLRHYYNWLTRQRY-NH2 (SMILES CC(C)CC(=O)N[C@@H](C)C(=O)N1CCC[C@H]1C(=O)N[C@@H](CCC(=O)O)C(=O)N[C@@H](CCCCNC(=O)COCCOCCNC(=O)COCCOCCNC(=O)CC[C@H](NC(=O)CCCCCCCCCCCCCCCCC(=O)O)C(=O)O)C(=O)N1CCC[C@H]1C(=O)N[C@@H](CCC(=O)O)C(=O)N[C@@H](CCC(=O)O)C(=O)N[C@@H](CC(=O)O)C(=O)N[C@H](C(=O)N[C@@H](CO)C(=O)N[C@@H](C)C(=O)N[C@@H](CCC(=O)O)C(=O)N[C@@H](CCC(=O)O)C(=O)N[C@@H](CC(C)C)C(=O)N[C@@H](CCC(N)=O)C(=O)N[C@@H](CCCNC(=N)N)C(=O)N[C@@H](Cc1ccc(O)cc1)C(=O)N[C@@H](Cc1ccc(O)cc1)C(=O)N[C@H](C(=O)N[C@@H](CO)C(=O)N[C@@H](CC(C)C)C(=O)N[C@@H](CCCNC(=N)N)C(=O)N[C@@H](Cc1c[nH]cn1)C(=O)N[C@@H](Cc1ccc(O)cc1)C(=O)N[C@@H](Cc1ccc(O)cc1)C(=O)N[C@@H](CC(N)=O)C(=O)N[C@@H](Cc1c[nH]c2ccccc12)C(=O)N[C@@H](CC(C)C)C(=O)N[C@H](C(=O)N[C@@H](CCCNC(=N)N)C(=O)N[C@@H](CCC(N)=O)C(=O)N[C@@H](CCCNC(=N)N)C(=O)N[C@@H](Cc1ccc(O)cc1)C(N)=O)[C@@H](C)O)C(C)C)[C@@H](C)O) [Compound 130] | 11.1
2 | Isovaleryl-APEK([AEEA-AEEA-γGlu-C18 diacid])AEEDASPEELQRYYVELRHYYNWLTRQRY-NH2 (SMILES CC(C)CC(=O)N[C@@H](C)C(=O)N1CCC[C@H]1C(=O)N[C@@H](CCC(=O)O)C(=O)N[C@@H](CCCCNC(=O)COCCOCCNC(=O)COCCOCCNC(=O)CC[C@H](NC(=O)CCCCCCCCCCCCCCCCC(=O)O)C(=O)O)C(=O)N[C@@H](C)C(=O)N[C@@H](CCC(=O)O)C(=O)N[C@@H](CCC(=O)O)C(=O)N[C@@H](CC(=O)O)C(=O)N[C@@H](C)C(=O)N[C@@H](CO)C(=O)N1CCC[C@H]1C(=O)N[C@@H](CCC(=O)O)C(=O)N[C@@H](CCC(=O)O)C(=O)N[C@@H](CC(C)C)C(=O)N[C@@H](CCC(N)=O)C(=O)N[C@@H](CCCNC(=N)N)C(=O)N[C@@H](Cc1ccc(O)cc1)C(=O)N[C@@H](Cc1ccc(O)cc1)C(=O)N[C@H](C(=O)N[C@@H](CCC(=O)O)C(=O)N[C@@H](CC(C)C)C(=O)N[C@@H](CCCNC(=N)N)C(=O)N[C@@H](Cc1c[nH]cn1)C(=O)N[C@@H](Cc1ccc(O)cc1)C(=O)N[C@@H](Cc1ccc(O)cc1)C(=O)N[C@@H](CC(N)=O)C(=O)N[C@@H](Cc1c[nH]c2ccccc12)C(=O)N[C@@H](CC(C)C)C(=O)N[C@H](C(=O)N[C@@H](CCCNC(=N)N)C(=O)N[C@@H](CCC(N)=O)C(=O)N[C@@H](CCCNC(=N)N)C(=O)N[C@@H](Cc1ccc(O)cc1)C(N)=O)[C@@H](C)O)C(C)C) [Compound 131] | 8.54
3 | Isovaleryl-APEK([AEEA-AEEA-γGlu-C18 diacid])PEEDASPEEVQRYYVELRHYYNWLTRQRY-NH2 (SMILES CC(C)CC(=O)N[C@@H](C)C(=O)N1CCC[C@H]1C(=O)N[C@@H](CCC(=O)O)C(=O)N[C@@H](CCCCNC(=O)COCCOCCNC(=O)COCCOCCNC(=O)CC[C@H](NC(=O)CCCCCCCCCCCCCCCCC(=O)O)C(=O)O)C(=O)N1CCC[C@H]1C(=O)N[C@@H](CCC(=O)O)C(=O)N[C@@H](CCC(=O)O)C(=O)N[C@@H](CC(=O)O)C(=O)N[C@@H](C)C(=O)N[C@@H](CO)C(=O)N1CCC[C@H]1C(=O)N[C@@H](CCC(=O)O)C(=O)N[C@@H](CCC(=O)O)C(=O)N[C@H](C(=O)N[C@@H](CCC(N)=O)C(=O)N[C@@H](CCCNC(=N)N)C(=O)N[C@@H](Cc1ccc(O)cc1)C(=O)N[C@@H](Cc1ccc(O)cc1)C(=O)N[C@H](C(=O)N[C@@H](CCC(=O)O)C(=O)N[C@@H](CC(C)C)C(=O)N[C@@H](CCCNC(=N)N)C(=O)N[C@@H](Cc1c[nH]cn1)C(=O)N[C@@H](Cc1ccc(O)cc1)C(=O)N[C@@H](Cc1ccc(O)cc1)C(=O)N[C@@H](CC(N)=O)C(=O)N[C@@H](Cc1c[nH]c2ccccc12)C(=O)N[C@@H](CC(C)C)C(=O)N[C@H](C(=O)N[C@@H](CCCNC(=N)N)C(=O)N[C@@H](CCC(N)=O)C(=O)N[C@@H](CCCNC(=N)N)C(=O)N[C@@H](Cc1ccc(O)cc1)C(N)=O)[C@@H](C)O)C(C)C)C(C)C) [Compound 133] | 2.31

These reach a lower Ki. Values come first.

Row | Ki [nM] | Binder
4 | 1.18 | Isovaleryl-APAK([AEEA-AEEA-γGlu-C18 diacid])PEEDSSPEELQRYYVSLRHYYNWLTRQRY-NH2 (SMILES CC(C)CC(=O)N[C@@H](C)C(=O)N1CCC[C@H]1C(=O)N[C@@H](C)C(=O)N[C@@H](CCCCNC(=O)COCCOCCNC(=O)COCCOCCNC(=O)CC[C@H](NC(=O)CCCCCCCCCCCCCCCCC(=O)O)C(=O)O)C(=O)N1CCC[C@H]1C(=O)N[C@@H](CCC(=O)O)C(=O)N[C@@H](CCC(=O)O)C(=O)N[C@@H](CC(=O)O)C(=O)N[C@@H](CO)C(=O)N[C@@H](CO)C(=O)N1CCC[C@H]1C(=O)N[C@@H](CCC(=O)O)C(=O)N[C@@H](CCC(=O)O)C(=O)N[C@@H](CC(C)C)C(=O)N[C@@H](CCC(N)=O)C(=O)N[C@@H](CCCNC(=N)N)C(=O)N[C@@H](Cc1ccc(O)cc1)C(=O)N[C@@H](Cc1ccc(O)cc1)C(=O)N[C@H](C(=O)N[C@@H](CO)C(=O)N[C@@H](CC(C)C)C(=O)N[C@@H](CCCNC(=N)N)C(=O)N[C@@H](Cc1c[nH]cn1)C(=O)N[C@@H](Cc1ccc(O)cc1)C(=O)N[C@@H](Cc1ccc(O)cc1)C(=O)N[C@@H](CC(N)=O)C(=O)N[C@@H](Cc1c[nH]c2ccccc12)C(=O)N[C@@H](CC(C)C)C(=O)N[C@H](C(=O)N[C@@H](CCCNC(=N)N)C(=O)N[C@@H](CCC(N)=O)C(=O)N[C@@H](CCCNC(=N)N)C(=O)N[C@@H](Cc1ccc(O)cc1)C(N)=O)[C@@H](C)O)C(C)C) [Compound 126]
5 | 1.18 | Isovaleryl-APEK([AEEA-AEEA-γGlu-C18 diacid])PEEDASPEELQKYYVTLRHYYNWLTRQRY-NH2 (SMILES CC(C)CC(=O)N[C@@H](C)C(=O)N1CCC[C@H]1C(=O)N[C@@H](CCC(=O)O)C(=O)N[C@@H](CCCCNC(=O)COCCOCCNC(=O)COCCOCCNC(=O)CC[C@H](NC(=O)CCCCCCCCCCCCCCCCC(=O)O)C(=O)O)C(=O)N1CCC[C@H]1C(=O)N[C@@H](CCC(=O)O)C(=O)N[C@@H](CCC(=O)O)C(=O)N[C@@H](CC(=O)O)C(=O)N[C@@H](C)C(=O)N[C@@H](CO)C(=O)N1CCC[C@H]1C(=O)N[C@@H](CCC(=O)O)C(=O)N[C@@H](CCC(=O)O)C(=O)N[C@@H](CC(C)C)C(=O)N[C@@H](CCC(N)=O)C(=O)N[C@@H](CCCCN)C(=O)N[C@@H](Cc1ccc(O)cc1)C(=O)N[C@@H](Cc1ccc(O)cc1)C(=O)N[C@H](C(=O)N[C@H](C(=O)N[C@@H](CC(C)C)C(=O)N[C@@H](CCCNC(=N)N)C(=O)N[C@@H](Cc1c[nH]cn1)C(=O)N[C@@H](Cc1ccc(O)cc1)C(=O)N[C@@H](Cc1ccc(O)cc1)C(=O)N[C@@H](CC(N)=O)C(=O)N[C@@H](Cc1c[nH]c2ccccc12)C(=O)N[C@@H](CC(C)C)C(=O)N[C@H](C(=O)N[C@@H](CCCNC(=N)N)C(=O)N[C@@H](CCC(N)=O)C(=O)N[C@@H](CCCNC(=N)N)C(=O)N[C@@H](Cc1ccc(O)cc1)C(N)=O)[C@@H](C)O)[C@@H](C)O)C(C)C) [Compound 132]
